This is an account of results in patent publication US5882644A, “Monoclonal antibodies specific for the platelet derived growth factor β receptor and methods of use thereof” (Protein Design Labs, Inc., priority 1996, dated 1999).

Data set [1] deals with Rat aortic smooth muscle cells (SMC). The data set is described as follows: Inhibition of PDGF BB-mediated proliferation of rat aortic smooth muscle cells. The data set is classed as cell-based. The following applies: PDGF BB 10 ng/ml, 3H-thymidine 19 to 26 hr. As for the experimental part:
To determine whether muM4TS.11 inhibits PDGF-mediated proliferation of rat cells in vitro, the following experiment was performed. Rat aortic smooth muscle cells (SMC) were plated at a 1:3 split ratio in 10% FCS and made quiescent 24 hours later by changing the medium to 1% control process serum replacement II (Sigma, St. Louis, Mo.). Three to five days later, the cells were stimulated with PDGF BB (10 ng/ml). At the time of stimulation, increasing doses of the specific MAb or mouse IgG (control) were added. Cell proliferation was determined by measuring ^3 H-thymidine incorporated into DNA when the cells were pulsed from 19 to 26 hr after stimulation. MuM4TS.11 inhibited proliferation in a concentration-dependent manner with an IC50 of about 0.5 μg/ml.

Data set [2] in a line: Pharmacokinetics in rats (plasma antibody by ELISA). In kind it is in vivo, rat. As for the experimental part:
In preliminary experiments to determine the pharmacokinetics of muM4TS.11 in rats, an initial dose of antibody was injected and blood samples obtained at 1, 2, 3, 6, 12, 24, 36, and 48 hr. Antibody levels in plasma were measured by ELISA. The half-life of the antibody in rats was approximately 1 day. […] (In humans, proportionally smaller and less frequent doses are likely to be sufficient for a humanized anti-PDGF-R β antibody such as HuM4TS.11 or HuM4TS.22 to be effective, because of the expected longer half-life in humans and higher affinity for human PDGF-R β of these non-immunogenic HuAbs).

The subject of data set [3] is PDGF-R β. The data set is described as follows: Competitive binding with 125I-PDGF BB on transfectant cells expressing PDGF-R β. More on the design: species or system human. The following applies: 4° C. As for the experimental part: To determine the ability of muM4TS.11 and muM4TS.22 to block binding of PDGF BB to PDGF-R β, the following competitive binding experiments were performed. Transfectant cells expressing PDGF-R β were harvested, washed twice with cold DMEM, and resuspended at 10^6 cells/ml in DMEM. The assay was carried out in triplicate by incubating 100 μl of the cell suspension with either: 1) no antibody (to determine total binding); 2) varying concentrations of antibody; or 3) 100 ng cold PDGF BB (to saturate specific binding sites and determine non-specific binding) for 15 minutes at 4° C. Each sample received 1.0 ng ^125 I-labeled PDGF BB, and was incubated for an additional 60 min at 4° C. Unbound ^125 I-labeled PDGF BB was separated from that bound to the cell by layering the sample over a mixture of 80% dibutylphthalate, 20% olive oil in a microfuge tube, and microfuging briefly to pellet the cells through the oil mixture. The tubes were placed in dry ice to freeze the contents, the tip of the tube containing the cell pellet was cut off into a vial, and radioactivity was determined in a gamma counter.
To assess the ability of HuM4TS.22 to block the binding of PDGF BB to its receptor, competitive binding experiments of HuM4TS.22 with ^125 I-PDGF BB were performed according to the method described in Example 3.
To assess the ability of muM4TS.11 and HuM4TS.11 to block the binding of PDGF BB to the PDGF β receptor, competitive binding experiments of these antibodies with ^125 I-PDGF BB were performed according to the method described in Example 3.

For data set [4], the system named is PDGF-R β. The data set is described as follows: Competition with 125I-labeled murine antibody tracer on Sp2/0 PDGF-R β transfectant cells. The data set is classed as binding, human. The following applies: calculated from competitive binding data; Sp2/0 PDGF-R β transfectants. As for the experimental part: To assess the ability of HuM4TS.22 to compete with muM4TS.22 for receptor binding, increasing concentrations of the two antibodies were respectively incubated on ice for one hour with Sp2/0 PDGF-R β transfectant cells and a fixed amount of tracer ^125 I-labeled muAb. The sample tubes were processed as in the blocking experiment just described.
To assess the ability of HuM4TS.11 to compete with the muAb for receptor binding, increasing concentrations of the two antibodies were respectively incubated on ice for one hour with Sp2/0 PDGF-R β transfectant cells and a fixed amount of tracer ^125 I-labeled M4TS.11. The sample tubes were processed as in the blocking experiment described. […] The binding affinities calculated from the data were: Ka =5×10^8 M^-1 for the muAb and 3×10^7 M^-1 for the HuAb.

Entries after “also recorded” stand apart in the source; their conditions may differ.

B1: muM4TS.11: murine monoclonal antibody to PDGF-R β, variable regions SEQ ID NOS:10 and 12; epitope in fourth extracellular domain (antibody, V domains shown)
VL: METETLLLWVLLLWVPGSTGDIVLTQSPPSLAVSLGQRATISCRASESVDSYGNSFMHWYQQKPGQPPKLLIYRASNLESGIPARFSGGGSRTDFTLTINPVEADDVATYYCQQSNEDPPTFGGGTKLEIK
VH: MERHWIFLFLFSVTAGVHSQVQLQQSGAEVAKPGASVKMSCKASGYTFTNCWMHWVKQRPGQGLEWIGYINPTTGYSEYNQNFKDKATLTADKSSNTAYIQLSSLTSEDSAVYYCTSNYGHYDWFANWGQGTLVT
Turning to B1, in data set [1], the “IC50 of inhibition of proliferation” value is listed as “about 0.5 μg/ml”. Further, in data set [2] (4 mg bolus, then 2 mg IV every 24 hr for 4 days), the “time antibody level stays above the in vitro inhibitory concentration” value is “at least 7 days”. Further, the “half-life of the antibody” value in data set [2] (preliminary experiments, plasma) is listed as “approximately 1 day”. In addition, the “blocking of 125I-PDGF BB binding to PDGF-R β” value in the data set on PDGF-R β [3] is on record as “did not; also recorded: neither muM4TS.11 nor HuM4TS.11 were able to inhibit binding of PDGF BB to its receptor”. In addition, the “binding affinity Ka” value in the data set with PDGF-R β [4] was 5e+08 M⁻¹.
